Laboratory results as given in the supplement of paper PMC9170038.

Tested on: MS2 coat protein
Experiment: apparent KD of MS2 coat protein; designed switch direction (-1 OFF switch, 1 ON switch): -1; higher = weaker reporter binding
In short: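 RNA switches sharing common flanks were transcribed by stalled E. coli RNA polymerase on Illumina chips. A doubling series of SNAP-549-labelled MS2 coat protein, from 0.7 or 1.5 nM to 3 µM, was applied in Tris-HCl pH 7.5 buffer with KCl, MgCl2, BSA, DTT, tRNA and Tween-20. Each step lasted 0.8–1.5 h at the bottom of the series and 10–20 min at the top. Normalised cluster fluorescence was curve-fitted, giving apparent KD as the per-design median over clusters.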

[1] = input ligand: microRNA oligo, concentration not stated
[2] = Eterna round: R95, input ligand: FMN 200 uM
[3] = Eterna round: R95, input ligand: microRNA oligo, concentration not stated
[4] = Eterna round: R95, input ligand: none

Row | Sequence | apparent KD of MS2 coat protein [3] [nM] | apparent KD of MS2 coat protein (input ligand: FMN 200 uM) [nM] | apparent KD of MS2 coat protein (input ligand: none) [nM] | other results
1 | UUUUGGCAUGUAGGAUAUGGGUCCGAUUAGGAUUUAGAAGGACAUGAGGAUCACCCAUGUGCAUUUAAUUGGUCUUUAUUUUUU [EXclNG1-LROPPY14] (Eterna round: R96, puzzle: Exclusion NG 1) |  |  |  | apparent KD of MS2 coat protein [1]: 62.3 nM
2 | UCGAGGUCAGGAUAUACAUGAGGAUCACCCAUGUGGAAGUAAGGUAGGAGAAGAGUAGGUAGAAGGGACGAGGG [JR_Exclu3_Sub051] (puzzle: Exclusion 3) | 37.9 |  |  | apparent KD of MS2 coat protein [2]: 38.2 nM; apparent KD of MS2 coat protein [4]: 46.3 nM
3 | AGGUGUAGAGGAUAUCUAUACUCCCACAUGAGGAUCACCCAUGUCCUGGUCACCAAGGACGGAGAAGGCUACACCA [Omei Ex5 D22] (Eterna round: R97, puzzle: Exclusion 5) |  | 130 | 68.3 | 
4 | UAAGUUUAGGUAGGAUAUACUUUAAAUUUCUCUAUCCAUACAUGAGGAUCACCCAUGUUUACAUUGUAGAAGGACCACUAUGUU [JR_ExcNG2_Sub055] (Eterna round: R96, puzzle: Exclusion NG 2) |  |  |  | apparent KD of MS2 coat protein [1]: 19.8 nM
5 | AUGGGUACUUUCGGAACGACAUGAGGAUCACCCAUGUAUACUGAGGAUAUCCACUACUAAGGACGGGAGAAGGCAGUGUACUGU [Ex NG3 #80] (Eterna round: R96, puzzle: Exclusion NG 3) |  | 27 | 18.5 | apparent KD of MS2 coat protein [1]: 12.1 nM
6 | AAAUAACAAGCGAGAUCCUACAUGAGGAUCACCCAUGUGCUCGUCUUAUAAAGUACUAUCACGAAAGUGAUAGUACA [Sensor 3, v1 - 13] (puzzle: Sensor v3, turn-off variant 1) | 50.8 |  |  | apparent KD of MS2 coat protein [2]: 16.4 nM; apparent KD of MS2 coat protein [4]: 16.3 nM
7 | UUAUUACGAGGAUAUCGUUUUUAUCACAUGAGGAUCACCCAUGUAAUUUAUGUUUCGUUUCGAGAAGGCGUUUGUU [JR_E5_Sub067] (puzzle: Exclusion 5) | 23.3 |  |  | 
8 | AGUGUAGCAGGAUAUACAUGAGGAUCACCCAUGUUUCCGGGACCAGAGCAUCUGCCAUGUAGAAGGGCUGCCUU [Eternabot (L2) Solution 80] (Eterna round: R97, puzzle: Exclusion 3) |  | 275 | 225 | 
9 | GUAUAACUACACGGGCUCAACAUGAGGAUCACCCAUGUAAUAUACGCAAGCUUUUUGCUUGUCUUAUCUGUCCGUGA [Aanrius] (puzzle: Sensor v3, turn-off variant 1) | 9.56 |  |  | apparent KD of MS2 coat protein [2]: 12.3 nM; apparent KD of MS2 coat protein [4]: 11.4 nM
10 | UGUAGAGUGGUAGGAUAUCCGUCUGUUUCAGUCGGAGAAGGACCACAGUCACUGGGUCCUUAUAUGGGUGACCAUGUAUCUACU [pwkr exNG1 F6.5] (Eterna round: R96, puzzle: Exclusion NG 1) |  | 652 | 369 | apparent KD of MS2 coat protein [1]: 303 nM
11 | ACUUAUAGAGGAUAUACAGUUUAUUACAUGAGGAUCACCCAUGUUCUUCAAUGUCCUGAAGUAGAAGGCUAAGGAA [Ex5 Malc#5 mod4] (Eterna round: R97, puzzle: Exclusion 5) |  | 19.7 | 16.3 | 
12 | UUAAUGUGAGGAUAUCAGGUGUGCUAGCGUACUGGUACAUCUGAGAAGGCACAUGAGGAUCACCCAUGUUCUUC [JL-ex4-3.30 Brourd mod] (puzzle: Exclusion 4) | 32.5 |  |  | 
13 | GUGUGCAGAGGAUAUACAGAGGAAAAGAAAAGAUAAGUGAUACAUGAGGAUCACCCAUGUAGAAGGCUGAGUGU [Excluse me!! 21 - Jieux - Exclusion 2] (puzzle: Exclusion 2) | 21.1 |  |  | apparent KD of MS2 coat protein [2]: 32.8 nM; apparent KD of MS2 coat protein [4]: 22.7 nM
14 | GCAAGCUUUUCGAUCCUCUACAUGAGGAUCACCCAUGUGCUCGAAUUGUUUGGUACUAUCACGAAAGUGAUAGUACA [Sensor, turn off variant 1 v.4] (Eterna round: R97, puzzle: Sensor, turn-off variant 1) |  | 936 | 1150 | 
15 | AUCCUACAUGAGGAUCACCCAUGUCAGGAUAUCCAAGAAAUCUGGCCGUAUCGGCCAGGGAGAAGGGAUAUGGG [jl-ex1-4.64 ViennaUCT mod] (Eterna round: R97, puzzle: Exclusion 1) |  | 57.7 | 74.2 | 
16 | GAGCCGCGAGGAUAUACAGACGAGUCCAUUACGUGUCUCGGACUUGAGGAUCACCCAAGUAGAAGGCGUCUCAG [salish99_ex2_r4_629] (Eterna round: R97, puzzle: Exclusion 2) |  | 34.3 | 34.2 | 
17 | GUGAAGUGAGGAUAUACGAGAGAGGCUGAACCGGACGAGAAGUAGAAGGCACAUGAGGAUCACCCAUGUACGGG [JR_Exclu4_Sub023] (puzzle: Exclusion 4) | 164 |  |  | 
18 | CUGCUCCGUGUAGGAUAUGCAUACUCCCACUAUGCAGAAGGACAUGAGGAUCACCCAUGUAUGUUAUUAUCACGUGUAGCGUAC [Design 16] (Eterna round: R96, puzzle: Exclusion NG 1) |  |  |  | apparent KD of MS2 coat protein [1]: 21.7 nM

Row | Sequence | apparent KD of MS2 coat protein [3] [nM] | apparent KD of MS2 coat protein (input ligand: FMN 200 uM) [nM] | apparent KD of MS2 coat protein (input ligand: none) [nM] | other results
19 | UAUACACAUGAGGAUCACCCAUGUGAGGAUAUGCGUACGUUGUCCGUAGGCGACGUGCGCAGAAGGCGCAAGGU [Mat - Mod of JL D95] (puzzle: Exclusion 1) | 61.4 |  |  | 
20 | UCGACUAGAGGAUAUACAUGAGGAUCACCCAUGUUGGUAUCACGAAUUCAACCAACUCGUAGAAGGCUGACGAC [Eternabot (L1) Solution 98] (Eterna round: R97, puzzle: Exclusion 3) |  | 24.2 | 24.9 | 
21 | AGAUUUGUAGUGAGGAUAUAGGAUGAGUAGUAGUACUAGAAGGCACAUGAGGAUCACCCAUGUAAGUGAAUGAG [Exclusion 4 mod test] (Eterna round: R97, puzzle: Brourd's mod of Exclusion 4) |  | 22.6 | 20.2 | 
22 | CAUGAUUGGGAAGGAUAUUGACCUAGUUAGUGCCGAGAAGGUCCCUUUCACAUGAGGAUCACCCAUGUGAGACUGGUGUUCGAG [Ex NG1 #98] (Eterna round: R96, puzzle: Exclusion NG 1) |  |  |  | apparent KD of MS2 coat protein [1]: 19.6 nM
23 | AUUGAUGUUGAGGAUAUGCUUAUAUUUAUACUUGCAGAAGGCGAUACAUGAGGAUCACCCAUGUUCAUGGAAGU [JR_E6_Sub092] (puzzle: Exclusion 6) | 26.2 |  |  | 
24 | CCGUCACAUGAGGAUCACCCAUGUCAGGAUAUCUAUCAUAGCAUCGAAAGAUGCGGGUAGAGAAGGGACUAUCC [ChP Ext 10-04-2015 #7] (puzzle: Exclusion 1) | 20.3 |  |  | 
25 | AGCCACAGAGGAUAUACAUACAUCCAGUAGUUGAGAAAACUACAUGAGGAUCACCCAUGUAGAAGGCUGUGGCA [Omei Ex2 BD B4] (Eterna round: R97, puzzle: Exclusion 2) |  | 27.4 | 321 | 
26 | UCUGGUCGAGGAUAUACAUGAGGAUCACCCAUGUAGAUCAACCAGCUUCGGCUGGAAUGUAGAAGGCGACCAGA [E3/5-A6] (Eterna round: R97, puzzle: Exclusion 3) |  | 149 | 19.8 | 
27 | AGAAAUGCCCAUGGCCGCAAGCUUUUUACUUGUCUUACCACAUGAGGAUCACCCAUGUGACAUGGGCUCCUGAUAAU [Mabeonen] (puzzle: Sensor v3, turn-off variant 2) | 27.5 |  |  | apparent KD of MS2 coat protein [2]: 15 nM; apparent KD of MS2 coat protein [4]: 13.4 nM
28 | AAAUACAAGUAAAGGUUCUACAUGAGGAUCACCCAUGUGCUCGUCUUAUAAAGUACUAUCACGAAAGUGAUAGUACA [Sensor 3, v1 - 39] (puzzle: Sensor v3, turn-off variant 1) | 92.5 |  |  | apparent KD of MS2 coat protein [2]: 19.2 nM; apparent KD of MS2 coat protein [4]: 16 nM
29 | AAUUAUUUUUGAGGAUAUGGUGGUGAAACACCACCAGAAGGCGGAAUAAACAUGAGGAUCACCCAUGUGAGCCUGAUGCUUAUG [Ex NG1 #47] (Eterna round: R96, puzzle: Exclusion NG 1) |  |  |  | apparent KD of MS2 coat protein [1]: 17.5 nM
30 | AUGUUAUUGGAAGGAUAUGGUUUACUAUCCUAACAUGAGGAUCACCCAUGUAACCUUAUGUGUAUCCAGAAGGUCCAUAACUUA (Eterna round: R96, puzzle: Exclusion NG 2) |  | 51.9 | 32.2 | apparent KD of MS2 coat protein [1]: 22.8 nM
31 | AGCUGACAAGGAUAUACAUGAGGAUCACCCAUGUUGGUUCAGCGACGAUAGUCGCAAUGUAGAAGGUGUCAGCU [E3/9-C2] (Eterna round: R97, puzzle: Exclusion 3) |  | 108 | 282 | 
32 | UGGUCACAUGAGGAUCACCCAUGUCAGGAUAUCGUCACUGGAGCUUCGGCUCCAGUGACGAGAAGGGACAUAAU [E1/6-A1] (Eterna round: R97, puzzle: Exclusion 1) |  | 47 | 394 | 
33 | GAGACUGGAGGAUAUACGAACUGGUGUAUCUGGAAGGAUCGACUUGAGGAUCACCCAAGUAGAAGGCUAGUGAA [Esgeti] (Eterna round: R97, puzzle: Exclusion 2) |  | 395 | 40.5 | 
34 | AAUUAUUAUUGAGGAUAUCGUAUUGAAACAAUACGAGAAGGCGGGAUAAACAUGAGGAUCACCCAUGUGAGCCUGAUGCUUGUG [Ex NG1 #41] (Eterna round: R96, puzzle: Exclusion NG 1) |  |  |  | apparent KD of MS2 coat protein [1]: 13.4 nM
35 | GUAGAGUCAGGAUAUACAAGAUCGAAAGAUCGGCGGUCCAUACAUGAGGAUCACCCAUGUAGAAGGGACUCUAC [Eli x2 4.005] (Eterna round: R97, puzzle: Exclusion 2) |  | 619 | 30.2 | 
36 | CCAGCAAUUGUCAGGAUAUGCUGGUCCUUGGAUCAGCAGAAGGGACAUGAGGAUCACCCAUGUGGAAAAGCUGG [Eli bmx4 4.64] (Eterna round: R97, puzzle: Brourd's mod of Exclusion 4) |  | 231 | 54.7 | 
